According to paper PMC7736792:

These sequences were tested on p44 (in p44/p62 complex);p62 (in p44/p62 complex) (Chaetomium thermophilum;Chaetomium thermophilum) (assay: fluorescence anisotropy). Settings: 20 mM HEPES pH 7.5, 30 mM KCl, 5 mM MgCl2, 1 mM TCEP, 5 nM DNA, room temperature.

With “TTTTTTTTTTTTTTTCCCGGCCATGCGAAGCATGGCCGGGTTTTT [open fork hairpin]” as the sequence, how does the Kd read?
Its Kd is 210 nM.

With “GACTACGTACTGTTACGGCTCCATCTCTACCGCAATCAGGCCAGATCTGC / GCAGATCTGGCCTGATTGCGGTAGCGATGGAGCCGTAACAGTACGTAGTC [undamaged dsDNA 50 bp]” as the sequence, how does the Kd read?
Its Kd is 1180 nM.

Which Kd does the source give for “GACTACGTACTGTTACGGCTCCATCTCTACCGCAATCAGGCCAGATCTGC [undamaged ssDNA 50 nt]” here?
The Kd was 840 nM.
